In patent publication US12043670B2, “Anti-BCMA antibody-drug conjugates and methods of use” (Eisai R&D Management Co., Ltd., priority 2020, dated 2024) one finds Tm data, which are given here for 36 molecules.

The data set is described as follows: ThermoFluor thermostability (Tm). The class given is physicochemical. On the technique in general: DSF heats the sample and reads unfolding from a dye or from intrinsic fluorescence.
Setting [1] is: Light chain screening Round 2, Fab, paired with heavy chain AB200_R1_VH26.
Setting [2] is: Fab fragment, light chain clone paired with heavy chain AB200_R1_VH32.

Positions count from the first letter of the chain named.

B1: AB200-R1H26-R2Vk18 (antibody)
heavy: QVQLVQSGAEVKKPGSSVKVSCKASGGSFSNYWMHWVRQAPGQGLEWMGATYRIHSDTFYNQKFKGRVTITADKSTSTAYMELSSLRSEDTAVYYCARGAIYHGYDVLDNWGQGTLVTVSSASTKGPSVFPLAPSSKSTSGGTAALGCLVKDYFPEPVTVSWNSGALTSGVHTFPAVLQSSGLYSLSSVVTVPSSSLGTQTYICNVNHKPSNTKVDKKVEPKSC
light: DIQMTQSPSSLSASVGDRVTITCRASQSISSYINWYQQKPGKAPKLLIYAASSLQSGVPSRFSGSGSGTDFTLTISSLQPEDFATYYCQQFRKIPWTFGQGTKLEIKRTVAAPSVFIFPPSDEQLKSGTASVVCLLNNFYPREAKVQWKVDNALQSGNSQESVTEQDSKDSTYSLSSTLTLSKADYEKHKVYACEVTHQGLSSPVTKSFNRGEC
For the molecule B1, under setting [1], the Tm came out at 82.729 °C.

B2: AB200-R1H26-R2Vk27 (antibody)
heavy: B1 heavy
light: B1 light with I33L, A51T, S53N, L54I, F91Y, T97S
For the molecule B2, under setting [1], the Tm stood at 79.104 °C.

B3: AB200-R1H26-R2Vk38 (antibody)
heavy: B1 heavy
light: B1 light with A51T, S53N
With B3, the Tm under setting [1] is 83.791 °C.

B4: AB200-R1H32-R2Vk7 (antibody)
heavy: B1 heavy with S28T, I54S, F59Y, G66S, L108I
light: B1 light with A51T, S53N, L54I, I94L, T97S
B4: the Tm under setting [2] was 79.001 °C.

B5: AB200-R1H32-R2Vk42 (antibody)
heavy: B1 heavy with S28T, I54S, F59Y, G66S, L108I
light: B1 light with A51T, S53N, L54I, F91Y, T97S
For B5, the Tm under setting [2] amounted to 75.027 °C.

B6: AB200-R1H32-R2Vk6 (antibody)
heavy: B1 heavy with S28T, I54S, F59Y, G66S, L108I
light: B1 light with A51T, S53N, I94L, T97S
On to B6, for which the Tm under setting [2] was determined as 79.773 °C.

B7: AB200-R1H26-R2Vk40 (antibody)
heavy: B1 heavy
light: B1 light with A51T, S53N, L54I, F91Y, K93R
In the case of B7, the Tm under setting [1] was found to be 79.308 °C.

B8: AB200-R1H26-R2Vk2 (antibody)
heavy: B1 heavy
light: B1 light with I94L, T97S
Turning to B8, the Tm under setting [1] is 82.119 °C.

B9: AB200-R1H32-R2Vk43 (antibody)
heavy: B1 heavy with S28T, I54S, F59Y, G66S, L108I
light: B1 light with A51T, S53N, L54I
Take B9: the Tm under setting [2] turned out to be 78.820 °C.

B10: AB200-R1H26-R2Vk37 (antibody)
heavy: B1 heavy
light: B1 light with A51T, S53N, F91Y, T97S
As to B10, the Tm under setting [1] stood at 79.374 °C.

B11: AB200-R1H32-R2Vk17 (antibody)
heavy: B1 heavy with S28T, I54S, F59Y, G66S, L108I
light: B1 light with F91Y, T97S
Take B11: the Tm under setting [2] was 76.415 °C.

B12: AB200-(2Vk8)_R2-CDR1-hs-v4 (antibody)
heavy: B1 heavy with S28T, N31S, W33A, M34I, H35S, I54S, H55Q, G66S, I101V, L108I
light: B1 light with A51T, S53N, S56I, I94L, T97S
Turning to B12, the Tm (Fab fragment, heavy chain clone paired with light chain AB200-(2Vk8)) was determined as 76.495 °C.

B13: AB200-R1H26-R2Vk42 (antibody)
heavy: B1 heavy
light: B1 light with A51T, S53N, L54I, F91Y, T97S
For B13, the Tm under setting [1] was determined as 78.411 °C.

B14: AB200-R1H32-R2Vk39 (antibody)
heavy: B1 heavy with S28T, I54S, F59Y, G66S, L108I
light: B1 light with A51T, S53N, L54I, F91Y, K93R, I94L, T97S
Take B14: the Tm under setting [2] came out at 76.077 °C.

B15: AB200-R1H26-R2Vk39 (antibody)
heavy: B1 heavy
light: B1 light with A51T, S53N, L54I, F91Y, K93R, I94L, T97S
B15: under setting [1], the Tm worked out at 78.907 °C.

B16: AB200-R1H26-R2Vk28 (antibody)
heavy: B1 heavy
light: B1 light with I33L, A51T, S53N, L54I
As to B16, the Tm under setting [1] is 82.966 °C.

B17: AB200-R1H32-R2Vk2 (antibody)
heavy: B1 heavy with S28T, I54S, F59Y, G66S, L108I
light: B1 light with I94L, T97S
As for B17, the Tm under setting [2] was found to be 79.715 °C.

B18: AB200-R1H26-R2Vk41 (antibody)
heavy: B1 heavy
light: B1 light with A51T, S53N, L54I, K93R, I94L
Consider B18, for which the Tm under setting [1] was found to be 83.256 °C.

B19: AB200-R1H26-R2Vk6 (antibody)
heavy: B1 heavy
light: B1 light with A51T, S53N, I94L, T97S
Consider B19, for which the Tm under setting [1] was found to be 82.640 °C.

B20: AB200-R1H26-R2Vk17 (antibody)
heavy: B1 heavy
light: B1 light with F91Y, T97S
As to B20, under setting [1], the Tm was 78.993 °C.

B21: AB200-R1H32-R2Vk8 (antibody)
heavy: B1 heavy with S28T, I54S, F59Y, G66S, L108I
light: B1 light with A51T, S53N, S56I, I94L, T97S
On to B21, for which the Tm under setting [2] was 80.002 °C.

B22: AB200-R1H32-R2Vk38 (antibody)
heavy: B1 heavy with S28T, I54S, F59Y, G66S, L108I
light: B1 light with A51T, S53N
As to B22, the Tm under setting [2] worked out at 80.727 °C.

B23: AB200-R1H26-R2Vk7 (antibody)
heavy: B1 heavy
light: B1 light with A51T, S53N, L54I, I94L, T97S
With B23, the Tm under setting [1] is 81.764 °C.

B24: AB200-R1H32-R2Vk4 (antibody)
heavy: B1 heavy with S28T, I54S, F59Y, G66S, L108I
light: B1 light with I33L, A51T, S53N, L54I, I94L, T97S
Take B24: the Tm under setting [2] is 79.449 °C.

B25: AB200-R1H32-R2Vk37 (antibody)
heavy: B1 heavy with S28T, I54S, F59Y, G66S, L108I
light: B1 light with A51T, S53N, F91Y, T97S
B25: the Tm under setting [2] worked out at 76.708 °C.

B26: AB200-R1H26-R2Vk47 (antibody)
heavy: B1 heavy
light: B1 light with A51T, S53N, S56I, F91Y, T97S
Consider B26, for which the Tm under setting [1] is 78.634 °C.

B27: AB200-R1H26-R2Vk8 (antibody)
heavy: B1 heavy
light: B1 light with A51T, S53N, S56I, I94L, T97S
Take B27: the Tm under setting [1] turned out to be 82.921 °C.

B28: AB200-R1H32-R2Vk40 (antibody)
heavy: B1 heavy with S28T, I54S, F59Y, G66S, L108I
light: B1 light with A51T, S53N, L54I, F91Y, K93R
With B28, the Tm under setting [2] was 76.379 °C.

B29: AB200-R1H32-R2Vk41 (antibody)
heavy: B1 heavy with S28T, I54S, F59Y, G66S, L108I
light: B1 light with A51T, S53N, L54I, K93R, I94L
Consider B29, for which the Tm under setting [2] worked out at 79.593 °C.

B30: AB200-R1H32-R2Vk47 (antibody)
heavy: B1 heavy with S28T, I54S, F59Y, G66S, L108I
light: B1 light with A51T, S53N, S56I, F91Y, T97S
Turning to B30, the Tm under setting [2] amounted to 75.976 °C.

B31: AB200-R1H32-R2Vk27 (antibody)
heavy: B1 heavy with S28T, I54S, F59Y, G66S, L108I
light: B1 light with I33L, A51T, S53N, L54I, F91Y, T97S
Consider B31, for which the Tm under setting [2] is 76.729 °C.

B32: AB200-R1H32-R2Vk28 (antibody)
heavy: B1 heavy with S28T, I54S, F59Y, G66S, L108I
light: B1 light with I33L, A51T, S53N, L54I
Turning to B32, the Tm under setting [2] came out at 79.945 °C.

B33: AB200-R1H32-R2Vk18 (antibody)
heavy: B1 heavy with S28T, I54S, F59Y, G66S, L108I
light: B1 light
Regarding B33, under setting [2], the Tm worked out at 79.872 °C.

B34: AB200-R1H26-R2Vk4 (antibody)
heavy: B1 heavy
light: B1 light with I33L, A51T, S53N, L54I, I94L, T97S
As to B34, under setting [1], the Tm came to 81.832 °C.

B35: AB200-R1H26-R2Vk43 (antibody)
heavy: B1 heavy
light: B1 light with A51T, S53N, L54I
For B35, the Tm under setting [1] stood at 82.001 °C.

B36: AB200-R1H26-R2Vk48 (antibody)
heavy: B1 heavy
light: B1 light with A51T, S53N, S56I
With B36, under setting [1], the Tm is 83.862 °C.
